Results taken from patent publication US20250281600A1 (published 2025).

Target: SARS-COV-2 Spike Protein Native RBD (UniProt P0DTC2 333-526)
Experiment: BLI

B1: REGN10933 IgG (antibody, V domains shown)
VH: QVQLVESGGGLVKPGGSLRLSCAASGFTFSDYYMSWIRQAPGKGLEWVSYITYSGSTIYYADSVKGRFTISRDNAKSSLYLQMNSLRAEDTAVYYCARDRGTTMVPFDYWGQGTLVTVSS
VL: DIQMTQSPSSLSASVGDRVTITCQASQDITNYLNWYQQKPGKAPKLLIYAASNLETGVPSRFSGSGSGTDFTFTISGLQPEDIATYYCQQYDNLPLTFGGGTKVEIKR
Q: For B1, which Kd is on record?
A: The Kd was 1.8 nM.
